IntAct's records for PubMed 17579517

B1: Serine/threonine-protein kinase PINK1, mitochondrial (Homo sapiens), Q9BXM7-1 (parent)
chain: MAVRQALGRGLQLGRALLLRFTGKPGRAYGLGRPGPAAGCVRGERPGWAAGPGAEPRRVGLGLPNRLRFFRQSVAGLAARLQRQFVVRAWGCAGPCGRAVFLAFGLGLGLIEEKQAESRRAVSACQEIQAIFTQKSKPGPDPLDTRRLQGFRLEEYLIGQSIGKGCSAAVYEATMPTLPQNLEVTKSTGLLPGRGPGTSAPGEGQERAPGAPAFPLAIKMMWNISAGSSSEAILNTMSQELVPASRVALAGEYGAVTYRKSKRGPKQLAPHPNIIRVLRAFTSSVPLLPGALVDYPDVLPSRLHPEGLGHGRTLFLVMKNYPCTLRQYLCVNTPSPRLAAMMLLQLLEGVDHLVQQGIAHRDLKSDNILVELDPDGCPWLVIADFGCCLADESIGLQLPFSSWYVDRGGNGCLMAPEVSTARPGPRAVIDYSKADAWAVGAIAYEIFGLVNPFYGQGKAHLESRSYQEAQLPALPESVPPDVRQLVRALLQREASKRPSARVAANVLHLSLWGEHILALKNLKLDKMVGWLLQQSAATLLANRLTEKCCVETKMKMLFLANLECETLCQAALLLCSWRAAL
partner: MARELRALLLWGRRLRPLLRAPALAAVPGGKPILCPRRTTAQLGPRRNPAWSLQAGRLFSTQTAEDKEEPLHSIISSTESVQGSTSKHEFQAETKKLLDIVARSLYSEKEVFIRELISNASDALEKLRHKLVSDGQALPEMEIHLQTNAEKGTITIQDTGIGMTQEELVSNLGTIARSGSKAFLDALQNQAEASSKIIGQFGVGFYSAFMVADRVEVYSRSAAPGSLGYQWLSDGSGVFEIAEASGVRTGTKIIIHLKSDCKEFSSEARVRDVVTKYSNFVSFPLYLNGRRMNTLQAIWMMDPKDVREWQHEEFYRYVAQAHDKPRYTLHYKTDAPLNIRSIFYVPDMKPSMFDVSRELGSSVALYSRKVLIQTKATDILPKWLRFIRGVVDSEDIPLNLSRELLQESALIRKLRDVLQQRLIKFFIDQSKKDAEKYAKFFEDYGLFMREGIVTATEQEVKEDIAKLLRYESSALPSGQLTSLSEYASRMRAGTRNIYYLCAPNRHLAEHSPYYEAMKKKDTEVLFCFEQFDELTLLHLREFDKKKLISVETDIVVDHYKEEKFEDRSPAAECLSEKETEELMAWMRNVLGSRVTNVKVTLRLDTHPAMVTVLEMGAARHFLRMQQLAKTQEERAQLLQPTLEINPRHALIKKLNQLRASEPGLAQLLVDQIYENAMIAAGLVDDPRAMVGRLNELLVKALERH

Variants of: B1
Details: with trap1_human TRAP1, Q12931

| effect of a mutation on the interaction | Variant |
| --- | --- |
| decreasing interaction | D384A |
| decreasing interaction | D362A |

Second part, the variant before the results:

| Variant | effect of a mutation on the interaction |
| --- | --- |
| K219A;D362A;D384A | decreasing interaction |
| G309D | decreasing interaction |
| L347P | decreasing interaction |
